Measured values taken from US20160152686A1.

Tests used:
[1] = molecular target: human serum albumin (human) (UniProt P02768); test: SPR, affinity to HSA
[2] = molecular target: VEGFR2 as engaged in the VEGF hBa/F3 proliferation assay; test: cell-based or functional assay

Sequence of human serum albumin (human) (P02768 25-609): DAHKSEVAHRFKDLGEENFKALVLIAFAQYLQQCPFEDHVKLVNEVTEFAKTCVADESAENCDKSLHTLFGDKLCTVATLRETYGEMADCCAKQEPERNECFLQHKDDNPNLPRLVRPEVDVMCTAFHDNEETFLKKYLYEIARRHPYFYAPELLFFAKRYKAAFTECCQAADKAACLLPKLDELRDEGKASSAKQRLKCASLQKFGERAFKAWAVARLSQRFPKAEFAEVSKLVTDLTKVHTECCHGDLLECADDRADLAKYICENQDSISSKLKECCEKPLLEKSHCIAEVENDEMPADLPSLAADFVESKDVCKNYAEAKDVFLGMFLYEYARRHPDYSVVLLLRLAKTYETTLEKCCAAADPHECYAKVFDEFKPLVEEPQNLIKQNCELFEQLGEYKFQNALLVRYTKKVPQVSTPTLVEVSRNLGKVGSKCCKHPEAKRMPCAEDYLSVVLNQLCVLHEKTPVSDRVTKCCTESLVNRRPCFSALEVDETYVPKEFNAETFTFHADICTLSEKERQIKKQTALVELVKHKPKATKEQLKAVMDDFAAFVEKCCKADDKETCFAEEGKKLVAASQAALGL

| Substance | Kd [1] | IC50, VEGF hBa/F3 proliferation assay [2] | IC50, VEGF hBa/F3 proliferation assay, with HSA [2] | Rel Pot (C7FL), VEGF hBa/F3 proliferation assay [2] | Rel Pot (C7FL), VEGF hBa/F3 proliferation assay, with HSA [2] |
| --- | --- | --- | --- | --- | --- |
| ABD (alone; column 'ABD' of Table 6) | 1.6 to 2.6 nM |  |  |  |  |
| CT-322 (C7FL lacking the 8 N-terminal amino acids and linked to PEG) (designed binder) |  | 7.53 | 8.85 | 0.62 | 0.53 |
